Assay results as given in article PMC4570232 (Cell reports, 2015).

Columns and labels:
FLAG-tagged Ragulator = FLAG-tagged Ragulator (UniProt Q6IAA8 1-161; Q9UHA4 1-124; Q9Y2Q5 1-125; O43504 1-91; Q0VGL1 1-99, G2A); test: pull-down
HA-GST-tagged Ragulator = HA-GST-tagged Ragulator (UniProt Q9Y2Q5 1-125; Q9UHA4 1-124; Q6IAA8 1-161; O43504 1-91; Q0VGL1 1-99, G2A); test: pull-down

B1: FLAG-tagged c17orf59 (natural protein)
chain: MESSRGRPGPETDLLAVAEHQALVFGGGPGRTSSEPPAGLRVSGEEETENVGGANRHPRTSPKTSSCGVVHRPEREALENEPGPQGTLSGAGSRRGAPGAEHEPSLSSRHKNPAPPEGKPSSGRDCRRGGPGGGMDVEQQEEEDNDEEAAAGSRAGRSFSSRLQDSRSLDGLSEACGGAGSSGSAESGAGGGRRATISSPLELEGTVSRHGDLTHFVANNLQLKIRLSGAPPPPPSAPARPCPAPAPTPTPAIPPIDPEVLRDLERLSRELGGRVDRLLRGLGGAVQELTALSVGCIQTYRDAVDSLGEAVDMSIKGMYTLLARCEELERALQPVQGLARQVRDIRRTLEVLEALCK
B1: binds (FLAG-tagged Ragulator); binds (HA-GST-tagged Ragulator).
